Laboratory results from PMC3586275 (Biochemistry, 2009).

Molecular target: the molecule itself
Test: SEC

B1: streptococcal coaggregation regulator (ScaR) (natural protein, Streptococcus gordonii, UniProt Q9RFN3 1-215, looked up)
chain: MTPNKEDYLKCLYELGTRHNKITNKEIAQLMQVSPPAVTEMMKKLLAEELLIKDKKAGYLLTDLGLKLVSDLYRKHRLIEVFLVHHLGYTTEEIHEEAEVLEHTVSDHFVERLDQLLDYPKACPHGGTIPAKGELLVEKHKLTLEEAKEKGDYILARVHDNFDLLTYLERNGLQVGKTIRFLGYDDFSHLYSLEVDGQEIQLAQPIAQQIYVEKI
stoichiometry N: 2
